Source: article PMC5725882 (Cell Discovery, 2017)

Tests used:
Conditions in all cases: both partners purified
[1] = target: T1, ND1p97wt (N-D1 fragment of wild-type p97, residues 1-480) (UniProt P55072 1-480); assay: ITC; VIMPx titrated into p97; iTC200, 25 C; 50 mM Tris pH 8.0, 150 mM NaCl, 2 mM MgCl2, 5% glycerol; 2 mM ADP in both samples; one-site model
T1 construct: p97 (valosin-containing protein, VCP), N-D1 long fragment, residues 1-480, wild type; also called N-D1 long; ND1p97 (residue 1-480)

[2] = target: T1, ND1p97wt (N-D1 fragment of wild-type …); assay: ITC; VIMPx titrated into p97; iTC200, 25 C; 50 mM Tris pH 8.0, 150 mM NaCl, 2 mM MgCl2, 5% glycerol; 2 mM AMP-PNP in both samples; one-site model
[3] = target: T2, FLp97wt (full-length wild-type p97, residues 1-806) (UniProt P55072 1-806); assay: as above
T2 construct: p97 (valosin-containing protein, VCP), full length, residues 1-806, wild type; also called VCP; valosin-containing protein

[4] = target: T3, full-length wild-type p97 (^FLp97^wt) (UniProt P55072 1-806); assay: pull-down; GST-VIMP variants on glutathione resin, p97 proteins in solution; 20 mM Tris pH 8.0, 150 mM NaCl, 3 mM MgCl2, 10% glycerol, 0.1% Triton X-100, 4 C, 2 mM ATPγS or AMP-PNP (Figures 3b and 4e: AMP-PNP); SDS-PAGE
T3 construct: p97 (valosin-containing protein, VCP), full-length, residues 1-806; also called VCP; valosin-containing protein; source: purified; expression and purification as described previously [13, 42, 44]

[5] = target: T4, full-length p97 R155H (^FLp97^mt) (UniProt P55072 1-806, R155H); assay: as above
T4 construct: p97 (VCP), full-length, residues 1-806, MSP1-associated mutation R155H; also called FLp97 R155H; pathogenic p97 variant R155H; source: purified; expression and purification as described previously [13, 42, 44]

[6] = target: T5, full-length p97 L198W (^FLp97^mt) (UniProt P55072 1-806, L198W); assay: as above
T5 construct: p97 (VCP), full-length, residues 1-806, MSP1-associated mutation L198W; also called FLp97 L198W; pathogenic p97 variant L198W; source: purified; expression and purification as described previously [13, 42, 44]

[7] = target: T6, full-length p97 A232E (^FLp97^mt) (UniProt P55072 1-806, A232E); assay: as above
T6 construct: p97 (VCP), full-length, residues 1-806, MSP1-associated mutation A232E; also called FLp97 A232E; pathogenic p97 variant A232E; source: purified; expression and purification as described previously [13, 42, 44]

[8] = target: T7, N-D1 fragment of wild-type p97, long form (^ND1p97^wt, residues 1-480) (UniProt P55072 1-480); assay: as above
T7 construct: p97 (VCP), N-D1 fragment, residues 1-480 (the form used in pull-down and ITC); also called N-D1 long; source: purified; expression and purification as described previously [13, 42, 44]

[9] = target: T8, N-D1 fragment of p97 R155H, long form (^ND1p97^mt, residues 1-480) (UniProt P55072 1-480, R155H); assay: as above
T8 construct: p97 (VCP), N-D1 fragment, residues 1-480, pathogenic mutation R155H; also called ND1p97 R155H; source: purified; expression and purification as described previously [13, 42, 44]

[10] = target: T9, N-D1 fragment of p97 L198W, long form (^ND1p97^mt, residues 1-480) (UniProt P55072 1-480, L198W); assay: as above
T9 construct: p97 (VCP), N-D1 fragment, residues 1-480, pathogenic mutation L198W; also called ND1p97 L198W (1-480); source: purified; expression and purification as described previously [13, 42, 44]

[11] = target: T10, N-D1 fragment of p97 A232E, long form (^ND1p97^mt, residues 1-480) (UniProt P55072 1-480, A232E); assay: as above
T10 construct: p97 (VCP), N-D1 fragment, residues 1-480, pathogenic mutation A232E; also called ND1p97 A232E (1-480); source: purified; expression and purification as described previously [13, 42, 44]
T10 sequence (P55072 1-480 A232E): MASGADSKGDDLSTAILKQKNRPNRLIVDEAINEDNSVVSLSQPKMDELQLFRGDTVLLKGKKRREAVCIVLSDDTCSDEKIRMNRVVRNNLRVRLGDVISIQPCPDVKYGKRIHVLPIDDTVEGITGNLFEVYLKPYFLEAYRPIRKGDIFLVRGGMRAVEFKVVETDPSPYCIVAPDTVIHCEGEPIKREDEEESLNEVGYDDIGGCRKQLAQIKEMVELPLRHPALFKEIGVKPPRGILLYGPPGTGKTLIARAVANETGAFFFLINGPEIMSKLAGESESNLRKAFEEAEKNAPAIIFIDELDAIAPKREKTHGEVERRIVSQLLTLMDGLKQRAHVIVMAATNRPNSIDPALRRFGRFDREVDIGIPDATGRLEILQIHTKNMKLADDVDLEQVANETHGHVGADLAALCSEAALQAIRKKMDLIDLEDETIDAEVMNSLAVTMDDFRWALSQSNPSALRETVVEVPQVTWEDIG

T1 sequence (P55072 1-480): as the sequence (P55072 1-480 A232E) above, with E232A counted along it
T3 sequence (P55072 whole entry, the tested form may be a part): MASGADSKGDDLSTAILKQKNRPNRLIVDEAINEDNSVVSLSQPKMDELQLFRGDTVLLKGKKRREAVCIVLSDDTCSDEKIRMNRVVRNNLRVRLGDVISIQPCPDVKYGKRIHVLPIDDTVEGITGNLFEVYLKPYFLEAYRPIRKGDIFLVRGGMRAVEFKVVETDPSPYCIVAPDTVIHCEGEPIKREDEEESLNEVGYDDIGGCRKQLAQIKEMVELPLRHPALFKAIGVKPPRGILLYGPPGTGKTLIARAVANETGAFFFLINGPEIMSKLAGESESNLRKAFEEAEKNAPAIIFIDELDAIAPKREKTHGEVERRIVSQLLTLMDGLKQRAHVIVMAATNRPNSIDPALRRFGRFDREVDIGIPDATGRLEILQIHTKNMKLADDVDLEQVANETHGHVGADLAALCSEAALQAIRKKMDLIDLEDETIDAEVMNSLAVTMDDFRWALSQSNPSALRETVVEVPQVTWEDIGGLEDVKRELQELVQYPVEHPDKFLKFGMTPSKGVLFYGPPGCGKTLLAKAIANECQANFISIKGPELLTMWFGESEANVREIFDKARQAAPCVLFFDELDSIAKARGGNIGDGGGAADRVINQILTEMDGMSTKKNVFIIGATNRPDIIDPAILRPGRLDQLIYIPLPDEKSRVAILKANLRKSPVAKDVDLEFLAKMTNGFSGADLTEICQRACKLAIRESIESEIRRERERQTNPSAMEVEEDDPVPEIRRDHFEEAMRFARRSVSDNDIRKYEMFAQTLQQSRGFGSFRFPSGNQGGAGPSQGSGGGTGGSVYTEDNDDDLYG
T2 sequence (P55072 whole entry, the tested form may be a part): as above
T7 sequence (P55072 1-480): as the sequence (P55072 1-480 A232E) above, with E232A counted along it
T8 sequence (P55072 1-480 R155H): as the sequence (P55072 1-480 A232E) above, with R155H, E232A counted along it
T5 sequence (P55072 whole entry L198W, the tested form may be a part): as the sequence (P55072 whole entry, the tested form may be a part) above, with L198W counted along it
T4 sequence (P55072 whole entry R155H, the tested form may be a part): as the sequence (P55072 whole entry, the tested form may be a part) above, with R155H counted along it
T9 sequence (P55072 1-480 L198W): as the sequence (P55072 1-480 A232E) above, with L198W, E232A counted along it
T6 sequence (P55072 whole entry A232E, the tested form may be a part): as the sequence (P55072 whole entry, the tested form may be a part) above, with A232E counted along it

Kd [1]	stoichiometry N [1]	Kd [2]	stoichiometry N [2]	Kd [3]	stoichiometry N [3]	binding result [4]	binding result [5]	binding result [6]	binding result [7]	binding result [8]	binding result [9]	binding result [10]	binding result [11]	Binder
6.21 ± 0.85 µM	1.13 ± 0.06	5.52 ± 0.26 µM	0.98 ± 0.05	7 ± 0.13 µM	0.66 ± 0.08	–	–	–	–	–	–	–	–	VIMPx (VCP-interacting membrane protein, residues 49-122) (domain or fragment, UniProt Q9BQE4 49-122, looked up, VIMP (selenoprotein S), fragment of the cytosolic segment, residues 49-122 (stop codon after M122); also called His-VIMPx; selenoprotein S; source: E. coli BL21(DE3), purified (Ni-NTA, Superdex 75)) QKLSARLRALRQRQLDRAAAAVEPDVVVKRQEALAAARLKMQEELNAQVEKHKEKLKQLEEEKRRQKIEMWDSM
–	–	–	–	–	–	binds	–	–	–	–	–	–	–	AVEPDVVVKRQEALAAARLKMQEELNAQVEKHKEKLKQLE (domain or fragment, UniProt Q9BQE4 69-108, looked up, VIMP (selenoprotein S), 40 residues A69-E108; source: held on glutathione resin) [GST-VIMP minimal fragment (A69-E108)]
–	–	–	–	–	–	binds	binds	binds	binds	binds	binds	binds	binds	GST-tagged cytosolic segment of VIMP (GST-VIMPc, residues 49-187) (domain or fragment, UniProt Q9BQE4 49-187, looked up, source: held on glutathione resin) QKLSARLRALRQRQLDRAAAAVEPDVVVKRQEALAAARLKMQEELNAQVEKHKEKLKQLEEEKRRQKIEMWDSMQEGKSYKGNAKKPQEEDSPGPSTSSVLKRKSDRKPLRGGGYNPLSGEGGGACSWRPGRRGPSSGG
